The values below come from patent US20110020437A1 (APIM THERAPEUTICS, published 2011).

The target of this assay is T1, proliferating cell nuclear antigen (PCNA) (UniProt P12004 1-261).
T1 construct: Used both for endogenous PCNA of HeLa cell extracts (co-IP, cross-linking) and for the untagged 'PCNA' used as probe in the dot blot; also called endogenous PCNA
In words: co-IP with anti-GFP antibodies from stably expressing cells, anti-PCNA western blot. As to the method:
An in-house affinity purified rabbit polyclonal antibody raised against GFP protein, which also recognises EYFP and ECFP proteins, was covalently linked to protein-A paramagnetic beads (Dynal®) according to procedure from New England Biolabs® Inc (from now on called α-GFP beads). Each fraction was incubated with α-GFP beads (10 μl) during constant rotation at 4° C. over night (IP). After IP, the beads were washed 4 times with 200 μl 10 mM Tris-HCl, 50 mM KCl (pH 7.5), with 5 min incubation on ice in between. The beads were then resuspended in NuPAGE ® (Invitrogen) loading buffer and 1 mM DTT, heated, and separated on 10% or 4-12% Bis-Tris-HCl (NuPAGE®) gels and transferred to PVDF membranes (Imrnobilon®, Millipore). The membranes were blocked for 1 h in 5% low fat dry milk in PBST (PBS with 0.1% Tween® 20). The primary antibodies, α-PCNA (PC10, Santa Cruz biotechnology Inc.) and α-GFP were diluted in 1% dry milk in PBST and incubated for 1 h, followed by 1 h incubation with secondary antibodies, Polyclonal Rabbit Anti-mouse IgG/HRP and Polyclonal Swine Anti-rabbit IgG/HRP, respectively (DakoCytomation, Denmark). The membranes were treated with chemiluminescence reagent (SuperSignal® West Femto Maximum, PIERCE), and the proteins visualised in Kodak Image Station 2000R. […]
A general note: In western blotting, separated proteins are transferred to a membrane and probed.

T1 sequence (P12004 whole entry): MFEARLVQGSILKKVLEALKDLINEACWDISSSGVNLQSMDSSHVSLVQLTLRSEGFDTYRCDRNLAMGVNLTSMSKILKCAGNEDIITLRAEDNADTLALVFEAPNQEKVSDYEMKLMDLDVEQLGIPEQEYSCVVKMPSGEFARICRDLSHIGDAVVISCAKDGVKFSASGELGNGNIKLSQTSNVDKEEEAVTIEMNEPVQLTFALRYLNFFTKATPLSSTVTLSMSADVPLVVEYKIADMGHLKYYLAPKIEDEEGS

B1: hABH211-261-EYFP (other, human, UniProt Q6NS38 11-261, looked up)
chain: GGLLRKQEEQEPTGEEPAVLGGDKESTRKRPRREAPGNGGHSAGPSWRHIRAEGLDCSYTVLFGKAEADEIFQELEKEVEYFTGALARVQVFGKWHSVPRKQATYGDAGLTYTFSGLTLSPKPWIPVLERIRDHVSGVTGQTFNFVLINRYKDGCDHIGEHRDDERELAPGSPIASVSFGACRDFVFRHKDSRGKSPSRRVAVVRLPLAHGSLLMMNHPTNTHWYHSLPVRKKVLAPRVNLTFRKILLTKK
notes: not shown: C-terminal EYFP tag (pEYFP-N1)
In the case of B1, the binding result was “no binding”.
